The values that follow are results of earlier work, collected in publication PMC8438204, “Unraveling the Thermodynamics of Ultra-tight Binding of Intrinsically Disordered Proteins” (Frontiers in Molecular Biosciences, 2021).

As usually defined, the Kd is a measure of binding affinity in units of concentration.

The target of the data set is prothymosin α (Homo sapiens) (UniProt P06454).
Chain of prothymosin α (Homo sapiens) (P06454 2-111): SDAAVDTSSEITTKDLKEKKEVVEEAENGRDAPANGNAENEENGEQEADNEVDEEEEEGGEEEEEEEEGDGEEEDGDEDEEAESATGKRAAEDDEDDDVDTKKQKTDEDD

Chain of histone H1 (P07305 2-194): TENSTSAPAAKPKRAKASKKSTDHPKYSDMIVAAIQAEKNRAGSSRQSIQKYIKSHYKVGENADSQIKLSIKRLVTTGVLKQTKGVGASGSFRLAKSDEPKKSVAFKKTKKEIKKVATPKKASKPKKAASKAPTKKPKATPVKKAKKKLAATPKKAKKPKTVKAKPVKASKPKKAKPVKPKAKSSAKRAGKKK

Regarding histone H1 (from UniProt P07305), the Kd is 2 pM.
